Patent US6723838 (Johns Hopkins, dated 2004)
Blank lines part the entries; values can stand above or below the binder they belong to.

Assays:
[1] = biological target: T1, SYNGAP deletion mutant 894 to 1134 (-QTR*) (rat, UniProt Q9QUH6 1067-1307); experiment: yeast two-hybrid, HIS3 growth without leucine, tryptophan and histidine in 100 mM 3-aminotriazole
T1 construct: PCR generated deletion mutant, ends in -QTR; not shown: The GAL4 two-hybrid fusion domain and its junction residues
T1 sequence: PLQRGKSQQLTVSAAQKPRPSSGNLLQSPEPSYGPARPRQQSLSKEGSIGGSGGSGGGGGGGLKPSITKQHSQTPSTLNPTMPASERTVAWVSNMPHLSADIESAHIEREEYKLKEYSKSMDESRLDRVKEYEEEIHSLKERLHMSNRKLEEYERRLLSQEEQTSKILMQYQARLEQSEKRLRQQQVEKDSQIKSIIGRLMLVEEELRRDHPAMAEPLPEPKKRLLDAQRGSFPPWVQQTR
Description: (§1) The PDZ domains of PSD-95/SAP90 and SAP102 were amplified by PCR and subcloned into the yeast vector, pPC 86. PDZ domain 1 of PSD-95 covers the amino acids from 40 to 160; PDZ domain 2, from 156 to 248; and PDZ domain 3, from 298 to 403. See e.g., Cho et al., (1992) Neuron 9:929 for disclosure relating to the PSD-95 sequence.

[2] = biological target: T2, SYNGAP deletion mutant 894 to 1132 (-Q*) (rat, UniProt Q9QUH6 1067-1305); experiment: as above
T2 construct: PCR generated deletion mutant, ends in -Q; not shown: The GAL4 two-hybrid fusion domain and its junction residues
T2 sequence: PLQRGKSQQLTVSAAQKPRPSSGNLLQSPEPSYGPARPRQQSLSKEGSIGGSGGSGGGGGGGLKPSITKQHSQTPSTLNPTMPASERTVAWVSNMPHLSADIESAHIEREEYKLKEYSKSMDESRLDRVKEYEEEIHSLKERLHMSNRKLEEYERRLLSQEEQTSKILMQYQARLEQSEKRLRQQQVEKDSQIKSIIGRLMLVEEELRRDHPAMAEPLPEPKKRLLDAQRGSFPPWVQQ
Description: as §1

[3] = biological target: T3, SYNGAP of rat brain (endogenous) (rat, UniProt Q9QUH6 174-1308, limits assumed); experiment: coimmunoprecipitation from deoxycholate solubilized rat brain membranes, immunoblot
T3 construct: Native protein in brain homogenates, deoxycholate extracts of brain membranes and cultured hippocampal neurons; runs as a doublet or triplet, so the isoform is not certain; also called 130 kDa protein in brain; doublet or triplet of proteins at 130 kDa
T3 sequence: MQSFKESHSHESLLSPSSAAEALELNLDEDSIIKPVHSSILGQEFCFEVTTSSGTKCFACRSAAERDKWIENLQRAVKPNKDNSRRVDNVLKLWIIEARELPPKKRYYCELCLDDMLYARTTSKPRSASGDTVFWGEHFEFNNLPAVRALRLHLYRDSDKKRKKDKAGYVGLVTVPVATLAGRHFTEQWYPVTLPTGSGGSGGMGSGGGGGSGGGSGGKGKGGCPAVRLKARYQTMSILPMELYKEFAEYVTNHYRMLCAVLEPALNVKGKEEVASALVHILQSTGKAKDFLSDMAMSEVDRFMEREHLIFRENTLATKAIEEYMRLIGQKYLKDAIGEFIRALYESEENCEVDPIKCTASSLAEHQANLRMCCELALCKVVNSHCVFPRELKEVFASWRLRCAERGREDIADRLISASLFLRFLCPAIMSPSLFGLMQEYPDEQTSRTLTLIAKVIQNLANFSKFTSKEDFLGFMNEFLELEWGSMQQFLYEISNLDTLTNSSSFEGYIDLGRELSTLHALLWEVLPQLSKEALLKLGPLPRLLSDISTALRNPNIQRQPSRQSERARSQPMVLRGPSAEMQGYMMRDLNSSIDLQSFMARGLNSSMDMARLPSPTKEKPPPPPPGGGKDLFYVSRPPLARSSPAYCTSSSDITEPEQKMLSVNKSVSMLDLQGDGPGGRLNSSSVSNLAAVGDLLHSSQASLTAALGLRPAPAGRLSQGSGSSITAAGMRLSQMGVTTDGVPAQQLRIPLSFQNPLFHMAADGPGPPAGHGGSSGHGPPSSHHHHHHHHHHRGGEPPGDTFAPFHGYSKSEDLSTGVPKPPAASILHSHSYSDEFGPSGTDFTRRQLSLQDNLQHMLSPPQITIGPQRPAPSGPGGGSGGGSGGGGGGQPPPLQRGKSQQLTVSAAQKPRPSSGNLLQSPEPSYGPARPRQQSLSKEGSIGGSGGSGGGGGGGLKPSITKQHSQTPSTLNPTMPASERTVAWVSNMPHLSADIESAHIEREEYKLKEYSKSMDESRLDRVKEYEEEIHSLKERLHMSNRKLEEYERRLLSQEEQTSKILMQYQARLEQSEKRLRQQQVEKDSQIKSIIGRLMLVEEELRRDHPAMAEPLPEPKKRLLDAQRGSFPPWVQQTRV
Description: Cortex and hippocampus from a male Sprague-Dawley rat, age of 4 to 6 weeks were homogenized twice using a glass-Teflon homogenizer with protease inhibitors (antipain, chymotrypsin, leupeptin, Trasylol, 0.1 mM PMSF). After determining the protein concentration of the P2 fraction by a Coomasie assay (Pierce), aliquots of the proteins at 3 mg/ml were stored at −80° C. until use. For coimmunoprecipitation, PA (300 μg per IP) was solubilized by 1.0% sodium deoxycholate followed by 0.1% Triton X-100 and the preparation was centrifuged for 10 minutes at 100,000×g. The supernatant was then used for coimmunoprecipitation.
The clarified supernatant of solubilized P2 fraction was then added to the sepharose beads and the mixture incubated for 2 to 3 hours at 4° C. […] When the antibodies were blocked with antigens, they were preincubated with the peptide at concentration of 100 µg/ml or fusion proteins at concentration of 50 µg/ml.

- binding result [2]: no binding
B1: SAP102 PDZ 3 subcloned into yeast vector pPC 86 (other, UniProt Q62936 404-484, looked up, not shown: large carriers)
chain: KIILHKGSTGLGFNIVGGEDGEGIFVSFILAGGPADLSGELRRGDRILSVNGVNLRNATHEQAAAALKRAGQSVTIVAQYR
notes: domain: PDZ 3; Limits of the pPC86 construct are not restated; the bait construct of the same domain covers 367 to 452; also called third PDZ domain of SAP102
- binding result [1]: no binding

- binding result [3]: no binding
B2: GluR1 subunit of rat brain (endogenous) (receptor, UniProt P19490 19-907, looked up)
chain: ANFPNNIQIGGLFPNQQSQEHAAFRFALSQLTEPPKLLPQIDIVNISDSFEMTYRFCSQFSKGVYAIFGFYERRTVNMLTSFCGALHVCFITPSFPVDTSNQFVLQLRPELQEALISIIDHYKWQTFVYIYDADRGLSVLQRVLDTAAEKNWQVTAVNILTTTEEGYRMLFQDLEKKKERLVVVDCESERLNAILGQIVKLEKNGIGYHYILANLGFMDIDLNKFKESGANVTGFQLVNYTDTIPARIMQQWRTSDSRDHTRVDWKRPKYTSALTYDGVKVMAEAFQSLRRQRIDISRRGNAGDCLANPAVPWGQGIDIQRALQQVRFEGLTGNVQFNEKGRRTNYTLHVIEMKHDGIRKIGYWNEDDKFVPAATDAQAGGDNSSVQNRTYIVTTILEDPYVMLKKNANQFEGNDRYEGYCVELAAEIAKHVGYSYRLEIVSDGKYGARDPDTKAWNGMVGELVYGRADVAVAPLTITLVREEVIDFSKPFMSLGISIMIKKPQKSKPGVFSFLDPLAYEIWMCIVFAYIGVSVVLFLVSRFSPYEWHSEEFEEGRDQTTSDQSNEFGIFNSLWFSLGAFMQQGCDISPRSLSGRIVGGVWWFFTLIIISSYTANLAAFLTVERMVSPIESAEDLAKQTEIAYGTLEAGSTKEFFRRSKIAVFEKMWTYMKSAEPSVFVRTTEEGMIRVRKSKGKYAYLLESTMNEYIEQRKPCDTMKVGGNLDSKGYGIATPKGSALRNPVNLAVLKLNEQGLLDKLKNKWWYDKGECGSGGGDSKDKTSALSLSNVAGVFYILIGGLGLAMLVALIEFCYKSRSESKRMKGFCLIPQQSINEAIRTSTLPRNSGAGASGGGGSGENGRVVSQDFPKSMQSIPCMSHSSGMPLGATGL
notes: also called NMDA receptor GluR1 subunit (so in the source)
